From patent publication US20230272099A1 (Chugai, published 2023) come the findings set out here.

Test [1] deals with T1, hCD137 (FXa digested) (human, UniProt Q07011 24-186).
T1 construct: Factor Xa digestion and Protein A removed the Fc; also called human CD137 extracellular domain
In words: SPR 37C, 10 uM ATP. The protocol: (§1) Measurements of human CD137 binding were taken at 37° C. using 20 mM ACES (pH 7.4), 150 mM NaCl, 2 mM MgCl₂, and 0.05% Tween20 as running buffer. At first, antibodies were captured by interacting antibody solutions prepared in running buffer with the rabbit anti-mouse IgG (Thermo Scientific)-immobilized Series S Sensor Chip CM5 (GE Healthcare). The human CD137-binding activity in the presence of ATP and in the absence of ATP was then assessed by interacting with a human CD137 solution prepared in running buffer supplemented with a desired concentration of ATP, or a human CD137 solution prepared in running buffer without ATP. […] The chip was regenerated using 25 mM NaOH and 10 mM Glycine-HCl (pH 1.5), and measurements were performed by repeatedly capturing antibodies. Dissociation constant (KD) of the respective antibodies for human CD137 was calculated using Biacore T200 Evaluation Software 2.0. Specifically, the association rate constant ka (L/mol/s) and the dissociation rate constant kd (1/s) were calculated by global fitting of the sensorgrams obtained by measurement with the 1:1 Langmuir binding model, and the dissociation constant KD (mol/L) was calculated from these values.

Test [2] concerns the target T1, hCD137 (FXa digested). In words: SPR 37C, 1 uM ATP. The protocol:
as §1

In test [3] the target is T1, hCD137 (FXa digested). As to the kind of experiment: SPR 37C, no ATP. The protocol: as §1
The target in test [4] is T1, hCD137 (FXa digested). In words: SPR 37C, 100 uM ATP. The protocol: as §1
Test [5] concerns the target T1, hCD137 (FXa digested). As to the kind of experiment: SPR, 1 mM AMP. The protocol:
(§2) Biacore T200 (GE Healthcare) was used to analyze the interaction of antigen-antibody reaction between the anti-CD137 antibodies and hCD137 (FXa digest). […] For the running buffer, 20 mM ACES, 150 mM NaCl, 2 mM MgCl₂, 0.05% Tween20 (pH 7.4) was used, and 10 mM Glycine-HCl (pH 1.5) was used as the regeneration solution.
(§3) After capturing of the anti-CD137 antibodies suspended in TBS, 500 nM hCD137 (FXa digest) was injected into each flow cell at a flow rate of 10 μL/min for three minutes. This three-minute period served as the binding phase for hCD137 (FXa digest), and after the binding phase ended, the two-minute period of switching to the running buffer served as the dissociation phase for hCD137 (FXa digest). After completion of the dissociation phase, the regenerative solution was injected at a flow rate of 30 μl/min for 30 seconds. The above was the cycle for measuring the binding activity of anti-CD137 antibodies. The binding amount of hCD137 (FXa digest) that interacted with the anti-CD137 antibody in the binding phase was adjusted by the amount of antibody captured. Biacore T200 Evaluation Software Version 2.0 was used to display the binding amount (RU) per capture ligand 1 RU, and values of the antibody capture amount (amount of antibody captured) and antigen-binding amount were obtained. Since the binding amount of antigen reflects the binding activity, it can be said that dependence on a small molecule is recognized when the value in the presence of the small molecule (ATP, ADP or AMP) is higher than the value without the small molecule. In particular, the larger the difference is, the higher the dependence is on a small molecule.
(SPR reads the build-up and loss of mass on a sensor chip optically.)

Test [6] addresses T1, hCD137 (FXa digested). In words: SPR, 1 mM ATP. The protocol: as §2, §3
Test [7] deals with T2, biotinylated Fc-fused monkey CD137 (monkey, biotin on the AviTag).
T2 construct: also called cyCD137-Fc-BAP
T2 sequence (chain, as listed by the source limits assumed): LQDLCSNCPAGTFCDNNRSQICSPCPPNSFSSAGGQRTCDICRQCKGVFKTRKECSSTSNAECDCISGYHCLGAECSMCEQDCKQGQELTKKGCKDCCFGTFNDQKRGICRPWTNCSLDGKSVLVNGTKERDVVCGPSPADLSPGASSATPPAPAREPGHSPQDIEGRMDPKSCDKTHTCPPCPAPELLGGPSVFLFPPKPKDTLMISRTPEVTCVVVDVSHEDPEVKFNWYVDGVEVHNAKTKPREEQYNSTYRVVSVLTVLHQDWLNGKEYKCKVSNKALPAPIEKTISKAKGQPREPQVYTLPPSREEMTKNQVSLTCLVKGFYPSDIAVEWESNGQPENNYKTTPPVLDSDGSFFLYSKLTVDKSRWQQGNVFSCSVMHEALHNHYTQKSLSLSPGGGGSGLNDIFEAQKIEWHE
In words: ELISA, 1 mM ADP, 0.039 ug/mL. The arrangement: reference not given here. The protocol:
(§4) The obtained antibodies were evaluated for binding to monkey CD137 by ELISA. The cyCD137-Fc-BAP prepared in Reference Example 1 was immobilized on Streptawell microtiter plates. After the unbound antigen was removed from the plates by washing each well of the plates with the wash buffer, the wells were blocked with 150 μL of a blocking buffer (TBS with 2% BSA) for 1 hour or more. The blocking buffer was removed from each well, and 100 μL of the purified antibodies diluted in TBS with a final concentration of 1 mM ADP, or TBS with a final concentration 1 mM ADP was added to each well. The plate to which the antibody was added was shaken at 600 rpm for 1 hour. The AP-conjugated anti-human lambda antibodies (BETHYL) diluted in TBS with a final concentration of 1 mM ADP were added to each well after washing with a wash buffer (TBS with 0.1% Tween20) containing a final concentration of 1 mM ADP. After incubation for one hour and washing with a wash buffer containing a final concentration of 1 mM […], BluePhos phosphate substrate (KPL) was added. Color development was measured by absorbance at 600 nm. Samples with a concentration-dependent increase in the absorbance ratio can be said to be bound to monkey CD137.
A general note: An ELISA detects its analyte on a solid surface through an enzyme-linked reagent.

The target in test [8] is T1, hCD137 (FXa digested). As to the kind of experiment: SPR, 10 uM ADP. The protocol: as §2, §3
Test [9] concerns the target T1, hCD137 (FXa digested). In words: SPR, no small molecule. The protocol: as §2, §3
The target of test [10] is T2, biotinylated Fc-fused monkey CD137. In words: ELISA, 1 mM ADP, 0.156 ug/mL. The arrangement: reference not given here. The protocol:
as §4

Test [11] shares this target. As to the kind of experiment: ELISA, 1 mM ADP, 0.625 ug/mL. The arrangement: reference not given here. The protocol: as §4
Test [12] concerns the target T1, hCD137 (FXa digested). As to the kind of experiment: SPR, 100 uM ATP. The protocol:
as §2, §3

For test [13], the target named is T2, biotinylated Fc-fused monkey CD137. In words: ELISA, 1 mM ADP, 10 ug/mL. Further details: reference not given here. The protocol:
as §4

Test [14] concerns the target T1, hCD137 (FXa digested). In words: SPR, 100 uM ADP. The protocol: as §2, §3
Test [15] addresses T1, hCD137 (FXa digested). As to the kind of experiment: SPR, 100 uM AMP. The protocol: as §2, §3
For test [16], the target named is T2, biotinylated Fc-fused monkey CD137. As to the kind of experiment: ELISA, 1 mM ADP, 2.5 ug/mL. The arrangement: reference not given here. The protocol:
as §4

The target is the same in test [17]. As to the kind of experiment: ELISA, 1 mM ADP, 0.010 ug/mL. Further details: reference not given here. The protocol: as §4

T1 sequence (Q07011 other isoform, or with tags, fused parts or gaps limits assumed): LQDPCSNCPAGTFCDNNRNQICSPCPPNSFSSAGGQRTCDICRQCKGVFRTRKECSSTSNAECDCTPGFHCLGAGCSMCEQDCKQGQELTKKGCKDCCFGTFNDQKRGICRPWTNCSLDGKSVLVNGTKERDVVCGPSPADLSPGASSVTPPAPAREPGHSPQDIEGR

B1: 20H4.9-MB110/20H4.9LC-mk0 (antibody, mouse IgG1, kappa)
heavy: QVQLQQWGAGLLKPSETLSLTCAVYGGSFSGYYWSWIRQSPEKGLEWIGEINHGGYVTYNPSLESRVTISVDTSKNQFSLKLSSVTAADTAVYYCARDYGPGNYDWYFDLWGRGTLVTVSSAKTTPPSVYPLAPGSAAQTNSMVTLGCLVKGYFPEPVTVTWNSGSLSSGVHTFPAVLQSDLYTLSSSVTVPSSTWPSETVTCNVAHPASSTKVDKKIVPRDCGCKPCICTVPEVSDVFIFPPKPKDVLTITLTPKVTCVVVDISKDDPEVQFSWFVDDVEVHTAQTQPREEQFNSTFRSVSELPIMHQDWLNGKEFKCRVNSAAFPAPIEKTISKTKGRPKAPQVYTIPPPKEQMAKDKVSLTCMITDFFPEDITVEWQWNGQPAENYKNTQPIMDTDGSYFVYSKLNVQKSNWEAGNTFTCSVLHEGLHNHHTEKSLSHSPGK
light: EIVLTQSPATLSLSPGERATLSCRASQSVSSYLAWYQQKPGQAPRLLIYDASNRATGIPARFSGSGSGTDFTLTISSLEPEDFAVYYCQQRSNWPPALTFGGGTKVEIKRADAAPTVSIFPPSSEQLTSGGASVVCFLNNFYPKDINVKWKIDGSERQNGVLNSWTDQDSKDSTYSMSSTLTLTKDEYERHNSYTCEATHKTSTSPIVKSFNRNEC
notes: also called NS1-MB110
Turning to B1, the Kd (as a rule, a measure of binding affinity in units of concentration) is 53.9 nM with hCD137 (FXa digested) [1], 56.5 nM with hCD137 (FXa digested) [2], 61 nM with hCD137 (FXa digested) [3] and 51.9 nM with hCD137 (FXa digested) [4].

B2: 20H4.9-MB492/20H4.9LC-mk0 (antibody, mouse IgG1, kappa)
heavy: QVQLQQWGAGLLKPSETLSLTCAVYGGSFSGYYWSWIRQSPEKGLEWIGEINHGGYVTYNPSLESRVTISVDTSKNQFSLKLSSVTAADTAVYYCARDYGPGNYDWYFDLWGRGTLVTVSSAKTTPPSVYPLAPGSAAQTNSMVTLGCLVKGYFPEPVTVTWNSGSLSSGVHTFPAVLQSDLYTLSSSVTVPSSTWPSETVTCNVAHPASSTKVDKKIVPRDCGCKPCICEPNEVEDVFIFPPKPKDVLTITLTPKVTCVVVDISKDDPEVQFSWFVDDVEVHTAQTQPREEQFNSTFRSVSELPIMHQDWLNGKEFKCRVDSAAFPAPIEKTISKTKGRPKAPQVYTIPPPKEQMAKDKVSLTCMITDFFPEDITVEWQWNGQPAENYKNTQPIMDTDGSYFVYSKLNVQKSNWEAGNTFTCSVLHEGLHNHHTEKSLSHSPGK
light: EIVLTQSPATLSLSPGERATLSCRASQSVSSYLAWYQQKPGQAPRLLIYDASNRATGIPARFSGSGSGTDFTLTISSLEPEDFAVYYCQQRSNWPPALTFGGGTKVEIKRADAAPTVSIFPPSSEQLTSGGASVVCFLNNFYPKDINVKWKIDGSERQNGVLNSWTDQDSKDSTYSMSSTLTLTKDEYERHNSYTCEATHKTSTSPIVKSFNRNEC
notes: also called NS1-MB492
Consider B2, for which the Kd turned out to be 53.5 nM in the test with hCD137 (FXa digested) [1], 54.9 nM with hCD137 (FXa digested) [2], 61.6 nM with hCD137 (FXa digested) [3] and 50.4 nM with hCD137 (FXa digested) [4].

B3: dBBAT119-P253 (antibody, human IgG1, lambda, V domains shown)
VH: EVQLVESGGDLVKPGGGLRLSCAASGFTFSTFTMNWVRQAPGKGLEWVSSISSRSNYKSYADSVKGRFTISRDNAKNSLYLQMNSLRAEDTAVYYCARYGAKNFMNWVFDYWGQGTLVTVSS
VL: QSALTQPPSASGSPGQTVTISCTGTSTDVGFYNYVSWYQQHPGKAPKLMIYYTSKRPSGVPDRFSGSKSGNTASLTVSGLQAEDEADYFCSSYRYDHQVSFGGGTKLTVLG
notes: also called dBBAT119H-P253/dBBAT119L-LamLib
Take B3: the binding amount with hCD137 (FXa digested) [5] came out at 58.6 RU; with hCD137 (FXa digested) [6], 45.7 RU; with hCD137 (FXa digested) [8] it was 67.2 RU; in the test with hCD137 (FXa digested) [9] it was 3.3 RU; with hCD137 (FXa digested) [12] it was 12.9 RU; with hCD137 (FXa digested) [14], 112 RU. This molecule also gave a binding amount with hCD137 (FXa digested) [15] of 26.9 RU. Further, the absorbance ratio in test [7] turned out to be 26.6; in test [10], 47.7; in [11], 57.2; in [13], 55.3; in test [16], 56.6; in test [17], 10.2.

B4: dBBAT021-P253 (antibody, human IgG1, lambda, V domains shown)
VH: EVQLVESGGDLVKPGGGLRLSCAASGFTFSSYTMNWVRQAPGKGLEWVSSISSRSNYRDYADSVKGRFTISRDNAKNSLYLQMNSLRAEDTAVYYCARYGGKNILNWVFDYWGQGTLVTVSS
VL: QSALTQPPSASGSPGQTVTISCTGTSSDVGFYNYVSWYQQHPGKAPKLMIYEVSKRPSGVPDRFSGSKSGNTASLTVSGLQAEDEADYFCSSYSSDTHVGFGGGTKLTVLG
On to B4, for which the binding amount is 5.7 RU with hCD137 (FXa digested) [5]; 9.2 RU in the test with hCD137 (FXa digested) [6]; 19.6 RU in the test with hCD137 (FXa digested) [8]; 2.9 RU with hCD137 (FXa digested) [9]; 2.4 RU with hCD137 (FXa digested) [12]; 56.6 RU with hCD137 (FXa digested) [14]. For the same molecule, the binding amount with hCD137 (FXa digested) [15] turned out to be 3 RU. In addition, the absorbance ratio came to 1.2 in test [7]; 1.7 in [10]; 4.6 in test [11]; 40.5 in test [13]; 14 in test [16]; 0.9 in test [17].
